Reference: patent US20240247072A1 (KEYMED BIOSCIENCES, published 2024)
Numbering of substitutions follows the chain as printed.

T1: human CD70, full length, on CHO cells (CHO-human CD70-B07) (human, UniProt P32970 1-193)
T1 construct: whole, on cells; Stably transfected CHO cells; also called CHO-CD70
T1 sequence (looked up): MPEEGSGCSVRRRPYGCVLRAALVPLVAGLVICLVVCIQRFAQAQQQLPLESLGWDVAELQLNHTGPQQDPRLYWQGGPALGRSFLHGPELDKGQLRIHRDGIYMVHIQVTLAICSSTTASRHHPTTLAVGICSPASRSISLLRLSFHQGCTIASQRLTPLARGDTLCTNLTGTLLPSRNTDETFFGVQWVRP

T2: recombinant cynomolgus monkey CD70 protein (cynomolgus monkey, UniProt A0A2K5WTU9 39-190)
T2 construct: it stands only in column heads ('Monkey', 'Cynomolgus Monkey CD70/CD27') and in result sentences; also called Monkey (ELISA)
T2 sequence: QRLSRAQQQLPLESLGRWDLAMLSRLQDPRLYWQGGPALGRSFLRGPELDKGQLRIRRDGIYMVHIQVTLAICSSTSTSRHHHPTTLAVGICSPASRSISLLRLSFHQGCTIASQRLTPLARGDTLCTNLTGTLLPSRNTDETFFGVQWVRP

T3: recombinant trimeric protein of human CD70 extracellular region (human CD70 mIgG Fc (knob) / mouse IgG Fc … (human, UniProt P01863 98-330 = IgG part))
T3 construct: The ELISA and Octet texts say only 'recombinant CD70 protein' / 'CM352 antigen'; also called recombinant human CD70 protein; recombinant CD70 protein
T3 chain 1: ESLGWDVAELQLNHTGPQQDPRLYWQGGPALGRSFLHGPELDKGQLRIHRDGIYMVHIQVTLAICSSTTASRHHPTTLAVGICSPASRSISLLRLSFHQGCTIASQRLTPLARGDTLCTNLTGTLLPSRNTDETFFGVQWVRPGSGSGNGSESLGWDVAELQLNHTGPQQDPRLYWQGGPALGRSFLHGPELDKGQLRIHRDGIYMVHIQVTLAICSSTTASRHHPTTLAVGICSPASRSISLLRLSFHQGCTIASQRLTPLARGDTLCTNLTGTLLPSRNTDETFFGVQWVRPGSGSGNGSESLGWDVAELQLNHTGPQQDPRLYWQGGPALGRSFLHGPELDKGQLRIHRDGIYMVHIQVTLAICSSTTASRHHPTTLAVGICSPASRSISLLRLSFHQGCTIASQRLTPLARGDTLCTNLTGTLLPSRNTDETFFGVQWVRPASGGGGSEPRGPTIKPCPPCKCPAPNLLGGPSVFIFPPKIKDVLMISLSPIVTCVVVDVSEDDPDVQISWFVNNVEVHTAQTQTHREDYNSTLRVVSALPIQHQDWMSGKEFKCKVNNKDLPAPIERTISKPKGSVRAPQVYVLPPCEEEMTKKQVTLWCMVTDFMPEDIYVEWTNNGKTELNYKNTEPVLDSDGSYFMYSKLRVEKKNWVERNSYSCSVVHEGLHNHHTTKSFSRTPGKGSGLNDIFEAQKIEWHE
T3 chain 2: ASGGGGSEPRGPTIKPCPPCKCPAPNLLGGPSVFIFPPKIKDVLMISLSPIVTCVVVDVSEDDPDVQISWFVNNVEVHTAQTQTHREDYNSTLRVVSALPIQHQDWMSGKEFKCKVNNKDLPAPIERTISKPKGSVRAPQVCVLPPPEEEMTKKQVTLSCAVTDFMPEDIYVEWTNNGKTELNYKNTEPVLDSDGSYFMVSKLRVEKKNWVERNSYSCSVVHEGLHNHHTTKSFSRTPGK

T4: cynomolgus monkey CD70, full length, on CHO cells (CHO-monkey CD70-D01) (cynomolgus monkey, UniProt A0A2K5WTU9 1-190)
T4 construct: whole, on cells; Stably transfected CHO cells; also called CHO-cynomolgus monkey CD70
T4 sequence: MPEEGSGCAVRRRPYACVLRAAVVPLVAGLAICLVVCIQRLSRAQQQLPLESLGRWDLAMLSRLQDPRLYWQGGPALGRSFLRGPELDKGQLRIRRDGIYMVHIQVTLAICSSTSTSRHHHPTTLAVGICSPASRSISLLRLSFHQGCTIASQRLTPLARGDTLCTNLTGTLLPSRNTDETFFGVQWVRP

B1: humanized antibody Ab004 (IgG1 wild type) (antibody, V domains shown)
VH: QVQLVQSGSELKKPGASVKVSCKASGYTFTNYGMNWVRQAPGQGLEWMGWINTYTGEPTYADGFTGRFVFSLDTSASTAYLQISSLKAEDTAVYFCAREEDYRYVFNYWGQGTLVTVSS
VL: DIQMTQSPSSLSASVGDRVTITCQASQDISNYLNWYQQKPGKAPKLLIYDTSRLHAGVPSRFSGSGSGTDYTFTISSLQPEDIATYFCQQGVTLPLTFGQGTKLEIK
notes: also called Ab004 IgG1 wt; h39H5 VHv2 + h39H5 VKv1
B2: 25H7 Fab antibody (Fab, V domains shown)
VH: EIQLVQSGPELKKPGETVKISCKASGYTFTNYGMNWVKQTPGKGLKWMGWINTDTGEPTYADDFKGRFAFSLETSASTAYLQINNLKNEDMATYFCAREEDYRYVFNYWGQGTTLTVSS
VL: DIQMTQTTSSLSASLGDRVTISCRASQDISNYLNWYQQKPDGTVKLLIYYTSRLHSGVPSRFSGSGSGTDYSLTISNLEQEDIATYFCQQGVTLPLTFGAGTKLELK
notes: Purified Fab from the mouse Fab phage display library
B3: 39H5 Fab antibody (Fab, V domains shown)
VH: B2 VH with T40A, K43Q, D54Y, K65T, T93A
VL: B2 VL with T5I, T7S, D17N, Y50D, S56A, L106I
notes: as for B2
B4: 26G11 Fab antibody (Fab, V domains shown)
VH: QVQLQQSGPELVKPGASVKISCKTSGYTFADYTMHWVRQSQGKSLEWIGDIYPNDGGPNNNQKFKDKATLTVDKSSSTAYMELRSLTSEDSAVYYCARPFYYGNYAGFAFWGQGTLVTVSA
VL: EMVLTQSPAIMSASPGEKVTMTCSASSSVSYMYWYQQKPGSSPRLLIYDTSNLASGVPVRFSGSGSGTSYSLTISRMEAEDAATYYCQQWSSYPLTFGAGTRLEIK
notes: as for B2

How the values were obtained:
[1] = target: FcγRIII V158 (CD16a receptor, high-affinity allele) (human) (UniProt P08637); experiment: SPR (Biacore)
[2] = target: FcγRIII F158 (CD16a receptor, low-affinity allele) (human) (UniProt P08637); experiment: SPR (Biacore)
[3] = target: T1, human CD70, full length, on CHO cells …; experiment: flow cytometry, humanized IgG1 on CHO-human CD70 cells
Procedure: (§1) The supernatant was discarded and the cells were gently tapped to be loosening. 50 μL of gradient diluted antibodies were added (antibody concentration: from 30 μg/mL, 3-fold dilution for 8 gradients) per well, and incubated at 4° C. for 1 hour. After incubation, 200 μL of 0.5% BSA was added to each well for washing 3 times. 50 μL/well of secondary antibody Alexa Fluro647 anti-human IgG (Jackson ImmunoResearch, Cat. No: 109-606-170) was added and incubated at 4° C. for 45 minutes. At the end of the incubation, each well was washed 3 times with 180 μL of 0.5% BSA and finally resuspended in 50 μL of PBS for iQue (Intellicyt) assay.

[4] = target: T2, recombinant cynomolgus monkey CD70 …; experiment: competition ELISA, humanized IgG1 titrated, CD27 coated, biotin-CD70, cynomolgus pair
[5] = target: T3, recombinant trimeric protein of human …; experiment: competition ELISA, humanized IgG1 titrated, CD27 coated, biotin-CD70, human pair
Procedure: The recombinant human CD27 protein was coated at 1 μg/mL in a 96-well microtiter plate and incubated overnight at 4° C. The next day, the plate was washed 3 times with PBS, added with 200 μL of 2% defatted dry milk/PBS, blocked at room temperature for 2 hours, and washed once with PBS. […] 30 μl of the antibody was added per well and incubated at room temperature for 30 minutes. […] The plate was washed 3 times with PBST and PBS and dried by spinning. A secondary antibody solution Streptavidin-coupled horseradish peroxidase SA-HRP (BD bioscience, Cat. No: 6222697) was diluted with 0.5% BSA in a ratio of 1:8000. 100 μL of the diluent was added into each well and incubated at room temperature for 30 minutes. The plate was washed 3 times with PBST and PBS and dried by spinning. […] of color development solution (TMB solution, Sigma, Cat. No: T2885) was added into each well and protected from light at 37° C. for reaction. After the substrate developed moderately, […] of H₂SO₄ was added into each well to terminate the reaction. The OD450 nm was determined using an enzyme-linked detector within 30 minutes, and the data was collected. The results were calculated by using Graph Pad Prism 5 software. See FIG. 10-1, 10-2, and Table 12 for the results.

[6] = target: FcγRIIIF158 on PBMC of FcγRIIIF158/F158 volunteers (human) (UniProt P08637); experiment: cell-based or functional assay
[7] = target: FcγRIIIV158 on PBMC of FcγRIIIV158/V158 volunteers (human) (UniProt P08637); experiment: cell-based or functional assay
[8] = target: T4, cynomolgus monkey CD70, full length, on …; experiment: flow cytometry, humanized IgG1 on CHO-cynomolgus monkey CD70 cells
Procedure: as §1

[9] = target: T3, recombinant trimeric protein of human …; experiment: cell-based or functional assay
[10] = target: T1, human CD70, full length, on CHO cells …; experiment: flow cytometry, Fab on CHO-human CD70 cells
Procedure: (§2) The blank control cell CHO and stably-transfected cell line CHO-CD70 were prepared and added at 5×10⁴ cells/well into a 96-well plate respectively. 50 μL of Fab antibodies with different dilution gradients were added into each well and incubated at 4° C. for 60 minutes. The centrifuge was performed to discard the supernatant. The plate was washed with 0.5% BSA/PBS and added with 50 μL of a secondary antibody solution (Anti-human IgG F (ab′) 2-AF647, Jackson Immuno Research) and incubated at 4° C. for 45 minutes. The excess secondary antibody was washed off with 0.5% BSA. The PBS solution was added to resuspend cells for flow cytometry. The data was collected.

[11] = target: T2, recombinant cynomolgus monkey CD70 …; experiment: competition ELISA, Fab titrated, cynomolgus CD27 coated, biotin-CD70
Procedure: (§3) The next day, the plate was washed 3 times with PBS, added with 200 μL of 2% defatted dry milk/PBS, blocked at room temperature for 2 hours, and washed once with PBS, 50 μL of different dilution gradients of Fab antibodies were added and incubated at room temperature for 30 minutes. […] The plate was washed 3 times with PBST and PBS and dried by spinning. A secondary antibody solution Streptavidin-coupled horseradish peroxidase SA-HRP (BD bioscience, Cat. No: 6222697) was diluted with 0.5% BSA in a ratio of 1:8000. 100 μl of the diluent was added into each well and incubate at room temperature for 30 minutes. The plate was washed 3 times with PBST and PBS and dried by spinning. 100 μl of the color development solution (TMB solution, Sigma, Cat. No: T2885) was added into each well and protected from light at 37° C. for reaction. After the substrate developed moderately, 50 μl of 2M concentrated sulfuric acid solution was added into each well to terminate the reaction. The OD450 nm was determined by using an enzyme-linked detector within 30 minutes, and the data was collected.

[12] = target: T3, recombinant trimeric protein of human …; experiment: competition ELISA, Fab titrated, human CD27 coated, biotin-CD70
Procedure: as §3

[13] = target: T4, cynomolgus monkey CD70, full length, on …; experiment: flow cytometry, Fab on CHO-cynomolgus CD70 cells
Procedure: as §2

[14] = target: T3, recombinant trimeric protein of human …; experiment: BLI (Octet), biotin antigen on SA probe, Fab in solution

Sequence of FcγRIIIF158 on PBMC of FcγRIIIF158/F158 volunteers (human) (P08637 17-254): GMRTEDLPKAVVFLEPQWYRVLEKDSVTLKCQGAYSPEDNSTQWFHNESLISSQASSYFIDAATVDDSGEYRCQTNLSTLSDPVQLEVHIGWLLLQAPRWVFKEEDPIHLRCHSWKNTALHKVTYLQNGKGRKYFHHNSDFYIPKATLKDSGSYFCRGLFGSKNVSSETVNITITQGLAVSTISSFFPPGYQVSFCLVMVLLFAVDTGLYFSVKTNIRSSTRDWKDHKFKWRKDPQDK
Sequence of FcγRIIIV158 on PBMC of FcγRIIIV158/V158 volunteers (human) (P08637 17-254 F176V): as the sequence (P08637 17-254) above, with F160V counted along it
Sequence of FcγRIII F158 (CD16a receptor, low-affinity allele) (human) (P08637 17-208 limits assumed): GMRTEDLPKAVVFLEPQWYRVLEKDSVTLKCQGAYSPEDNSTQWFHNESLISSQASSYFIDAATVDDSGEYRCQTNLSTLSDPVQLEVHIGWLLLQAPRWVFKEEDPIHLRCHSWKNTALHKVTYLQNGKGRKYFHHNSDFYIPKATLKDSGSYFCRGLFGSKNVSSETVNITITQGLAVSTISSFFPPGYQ
Sequence of FcγRIII V158 (CD16a receptor, high-affinity allele) (human) (P08637 17-208 F176V limits assumed): as the sequence (P08637 17-208 limits assumed) above, with F160V counted along it

Binder	Kd [1]	Kd [2]	EC50 [3]	IC50 [4]	IC50 [5]	ADCC Killing EC50, Daudi targets, FcγRIIIF158 PBMC [6]	ADCC Maximum killing rate, Daudi targets, FcγRIIIF158 PBMC [6]	ADCC Killing EC50, Daudi targets, FcγRIIIV158 PBMC [7]	ADCC Maximum killing rate, Daudi targets, FcγRIIIV158 PBMC [7]	EC50 [8]	Inhibition of IL-8 secretion IC50(nM), HT1080-human CD27 cells stimulated with recombinant human CD70 [9]	EC50 [10]	IC50 [11]	IC50 [12]	EC50 [13]	koff [14]
B1	565 nM	1300 nM	2.15 nM	0.05 nM	0.04 nM	0.23 nM	13%	0.22 nM	40%	3.39 nM	11 nM	–	–	–	–	–
B2	–	–	–	–	–	–	–	–	–	–	–	15.5 nM	14.4 nM	0.76 nM	23.4 nM	0.000326 s⁻¹
B3	–	–	–	–	–	–	–	–	–	–	–	8.7 nM	0.37 nM	0.38 nM	10.2 nM	9e-05 s⁻¹
B4	–	–	–	–	–	–	–	–	–	–	–	40.7 nM	4.36 nM	4.82 nM	49.7 nM	0.000287 s⁻¹
